Experiments:
Parameters in all cases: species or system Yeast (Deltaferm® AL-18)
[1] = SSF of maltodextrins with added maltotriose, 24 h (Example 1); conditions: SSF 24 h, maltodextrin + 20 g/L maltotriose, enzyme 187.5 kU per ton
Description: (§1) Quantification of ethanol yield Ethanol was quantified via HPLC. Samples were taken at the end of the SSF or during SSF at set time points. Samples were centrifuged for 1 min at 17,000 xg and sterile filtered (0.2 μm). The samples were frozen at −80° C. prior to measurements. Ethanol was determined with an Aminex 87C column (Bio-Rad Laboratories, Inc., US) on a Shimadzu HPLC system.
(§2) For simultaneous saccharification and fermentation (abbreviated SSF), the oligo-1,6-glucosidases—either Agl1 or Gth—were used as crude Bacillus extract. Glucidex® Maltodextrin 12 (Roquette, FR) was dissolved in SSF-medium (5 g/L yeast extract, 5 g/L peptone, 1 g/L K2HIPO4, 0.5 g/L Mg2SO4 in 50 mM citrate buffer, pH 4.8) at 300 g/L. Panose, isomaltose, isomaltotriose, maltose, maltotriose, or trehalose was added at 20 g/L. As a positive control, 20 g/L glucose was added instead of the respective sugar. The SSF medium containing starch hydrolysate (maltodextrins) and sugars was sterile filtered (0.2 μm). Yeast (Deltaferm® AL-18, WeissBioTech GmbH, Ascheberg, Germany) was grown in YINaC medium (50 g/L dextrose, 5 g/L yeast extract, 5 g/L peptone, 1 g/L K2HPO4, 0.5 g/L Mg2SO4*7H2O, 2 g/L NH4Cl in 50 mM sodium citrate, pH 4.8) for 2 days at 37° C. and harvested by centrifugation for 15 min at 5100 rpm and 8° C. Pelleted yeast was added to the SSF-medium at a final concentration of 6 g/L. Glucoamylase (Deltazym® GA L-E5, WeissBioTech GmbH, Ascheberg, Germany) was added at 40 g per ton of dry starch equivalent. The enzyme product Agl1 or Gth was added up to a final concentration of 187.5 kU per ton of dry starch equivalent. For the SSF with trehalose, Agl1 or Gth was added at 937.5 kU per ton of dry starch equivalent. As a negative control, an SSF as described above was run without oligo-1,6-glucosidase/enzyme product. The SSF was performed at 30° C. without stirring or shaking for 24 h.

[2] = Industry-relevant SSF of maltodextrins with added panose, 72 h (Example 2); conditions: SSF 72 h, maltodextrin + 20 g/L panose, glucoamylase 400 g/t, enzyme 187.5 kU per ton
Description: as §1
For the SSF, the enzyme product was used as crude Bacillus extract. Glucidex® Maltodextrin 12 was dissolved in SSF medium (5 g/L yeast extract, 5 g/L peptone, 1 g/L K2HIPO4, 0.5 g/L Mg2SO4 in 50 mM citrate buffer, pH 4.8) at 300 g/L. Panose was added at 20 g/L. As a positive control, 20 g/L glucose was added. The SSF medium containing starch and sugars was sterile filtered (0.2 μm). Yeast (Deltaferm® AL-18, WeissBioTech GmbH, Ascheberg, Germany) was grown in YINaC medium (50 g/L dextrose, 5 g/L yeast extract, 5 g/L peptone, 1 g/L K2HPO4, 0.5 g/L Mg2SO4*7H2O, 2 g/L NH4Cl in 50 mM sodium citrate, pH 4.8) for 2 days at 37° C. and harvested by centrifugation for 15 min at 5100 rpm and 8° C. Pelleted yeast was added to the SSF at a final concentration of 6 g/L. Glucoamylase (Deltazym® GA L-E5, WeissBioTech GmbH, Ascheberg, Germany) was added at 400 g per ton of dry starch equivalent. The enzyme product Agl1 or Gth was added to a final concentration of 187.5 kU per ton of dry starch equivalent. As a negative control, no oligo-1,6-glucosidase/enzyme product was added. The SSF was performed at 30° C. without stirring or shaking for 72 h.

[3] = SSF of maltodextrins with added trehalose, 24 h (Example 1); conditions: SSF 24 h, maltodextrin + 20 g/L trehalose, enzyme 937.5 kU per ton
Description: as §1, §2

[4] = SSF of commercial liquefied starch, 72 h (Example 3); conditions: SSF 72 h, commercial liquefied starch 300 g/L, glucoamylase 200 g/t, enzyme 187.5 kU per ton
Description: as §1
Residual sugars were quantified via HPLC. Samples were taken at the end of the SSF or during SSF at set time points. Samples were centrifuged for 1 min at 17 000 xg and sterile filtered (0.2 μm). The samples were frozen at −80° C. prior to measurements. Residual sugars were determined with a Zorbax NH2 column (Agilent Technologies, Inc., US) on an Agilent 1200 HPLC system.
Liquefied starch was analysed prior to use on a Zorbax NH2 column (Agilent Technologies, Inc., US) for analysis of mono-, di- and trisaccharide type and content, and on an Aminex 42A column (Bio-Rad Laboratories, Inc., US) for analysis of degree of polymerisation (DP) detecting DP1-DP6 content. IPLC was performed on a Shimadzu IPLC system.
For SSF, the enzyme product was used as crude Bacillus extract. Acidified liquefied starch (pH 2.0) from a commercial plant, containing no detectable amounts of panose, isomaltose, isomaltotriose or trehalose, was brought to pH 4.8. SSF medium components (5 g/L yeast extract, 5 g/L peptone, 1 g/L K2HIPO4, 0.5 g/L Mg2SO4 in 50 mM citrate buffer, pH 4.8) were added to liquefied starch (300 g/L). The SSF medium containing starch was sterile filtered (0.2 μm). Yeast (Deltaferm® AL-18, WeissBioTech GmbH, Ascheberg, Germany) was grown in YINaC medium (50 g/L dextrose, 5 g/L yeast extract, 5 g/L peptone, 1 g/L K2HPO4, 0.5 g/L Mg2SO4*7H2O, 2 g/L NH4Cl in 50 mM sodium citrate, pH 4.8) for 2 days at 37° C. and harvested by centrifugation for 15 min at 5100 rpm and 8° C. Pelleted yeast was added to the SSF at a final concentration of 6 g/L. Glucoamylase (Deltazym® GA L-E10, WeissBioTech GmbH, Ascheberg, Germany) was added at 200 g per ton of dry starch equivalent. The enzyme product Agl1 or Gth was added to a final concentration of 187.5 kU per ton of dry starch equivalent. As control, no oligo-1,6-glucosidase/enzyme product was added. The SSF was performed at 30° C. without stirring or shaking for 72 h.

[5] = SSF of maltodextrins with added isomaltotriose, 24 h (Example 1); conditions: SSF 24 h, maltodextrin + 20 g/L isomaltotriose, enzyme 187.5 kU per ton
Description: as §1, §2

Molecule	ethanol concentration increase by % compared to the negative control [1]	ethanol concentration increase compared to the negative control [1]	ethanol concentration increase by % compared to the negative control [2]	ethanol concentration increase compared to the negative control [2]	ethanol concentration increase by % compared to the negative control [3]	ethanol concentration increase compared to the negative control [3]	ethanol concentration increase by % compared to the negative control [4]	ethanol concentration increase compared to the negative control [4]	ethanol concentration increase by % compared to the negative control [5]	ethanol concentration increase compared to the negative control [5]
Agl1: oligo-1,6-glucosidase of Bifidobacterium breve UCC2003, amino acid sequence SEQ ID NO:1, expressed in Bacillus subtilis (protein, Bifidobacterium breve UCC2003; ACM89182.1 alpha-glucosidase 1) MMTTFNRAIIPDAIRTNGATPNPWWSNAVVYQIYPRSFQDTNGDGFGDLKGITSRLDYLADLGVDVLWLSPVYKSPQDDNGYDISDYQDIDPLFGTLDDMDELLAEAHKRGLKVVMDLVVNHTSDEHAWFEASKNKDDEHADWYWWRPARPGTTPGEPGSEPNQWGSYFGGSAWEYCPERGEYYLHQFSKKQPDLNWENPAVRRAVYDMMNWWLDRGIDGFRMDVITLISKRTDANGRLPGEYGSELDDLPVGEEGYSNPNPFCADGPRQDEFLKEMRREVFAGREGFLTVGEAPGITPVRNEHITNPANGELDMLFLFDHVDFDCDGVKWKPLPLDLPGFKRIMAGYQTAVENVGWASLFTGNHDQPRVVSRWGDDSSEESRVRSAKALGLMLHMHRGTPYVYQGEELGMTNAHFTSLDQYRDLESLNAYRQRVEEAKVQSPESMLAGIAARGRDNSRTPMQWDGSAYAGFTAPDAATEPWISVNPNHAEINAAGEFDDPDSVYAFYKKLIALRHNSSIVAAGEWQLIDADDAHVYAFTRTLGNERLLVVVNLSGRTVDLPRESTELIAGGVTEPDIILSTYDAPHTVVSLANRELDPWEAAAVQL	1%	0.03 percentage points (v/v)	8%	1.16 percentage points (v/v)	226%	1.86 percentage points (v/v)	2%	0.30 percentage points (v/v)	40%	0.48 percentage points (v/v)
Gth: oligo-1,6-glucosidase of Parageobacillus thermoglucosidasius, amino acid sequence SEQ ID NO:2, expressed in Bacillus subtilis (protein, listed as Parageobacillus thermoglucosidasius, WP_042386239.1 alpha-glucosidase) MERVWWKEAVVYQIYPRSFYDSNGDGIGDIRGIIAKLDYLKELGVDVVWLSPVYKSPNDDNGYDISDYRDIMDEFGTMADWKTMLEEMHKRGIKLVMDLVVNHTSDEHPWFIESRKSKDNPYRDYYIWRPGKNGKEPNNWESVFSGSAWEYDEMTGEYYLHLFSKKQPDLNWENPKVRREVYEMMKFWLDKGVDGFRMDVINMISKVPELPDGEPQSGKKYASGSRYYMNGPRVHEFLQEMNREVLSKYDIMTVGETPGVTPKEGILYTDPSRRELNMVFQFEHMDLDSGPGGKWDIRPWSLADLKKTMTKWQKELEGKGWNSLYLNNHDQPRAVSRFGDDGKYRVESAKMLATFLHMMQGTPYIYQGEEIGMTNVRFPSIEDYRDIETLNMYKERVEEYGEDPQEVMEKIYYKGRDNARTPMQWDDSENAGFTAGTPWIPVNPNYKEINVKAALEDPNSVFHYYKKLIQLRKQHDIIVYGTYDLILEDDPYIYAYTRTLGNEQLIVITNFSEKTPVFRLPDHIIYKTKELLISNYDVDEAEELKEIRLRPWEARVYKIRLP	0%	0.00 percentage points (v/v)	15%	1.77 percentage points (v/v)	31%	0.26 percentage points (v/v)	4%	0.47 percentage points (v/v)	48%	0.57 percentage points (v/v)

From patent US20230002798A1, “PROCESS FOR THE PREPARATION OF A FERMENTABLE SUGAR COMPOSITION AND THE FERMENTATION THEREOF” (WeissBioTech GmbH, priority 2019, published 2023)
